Test results: publication PMC10487585, “Refolding Increases the Chaperone-like Activity of αH-Crystallin and Reduces Its Hydrodynamic Diameter to That of α-Crystallin” (International Journal of Molecular Sciences, 2023)

Key:
[1] = molecular target: UV-damaged βL-crystallin (bovine (endogenous in steer lens))
[2] = molecular target: the molecule itself; assay: dynamic light scattering; ZetaSizer S nano; protein 1 mg/mL in PBS (40 mM sodium phosphate, pH 7.0, 100 mM NaCl, 1 mM EDTA, 3 mM NaN3); native protein without urea, or after renaturation from urea
αB-crystallin = molecular target: T1, αB-crystallin (bovine (endogenous in steer lens), UniProt P02510 1-175); assay: SEC; Sephacryl S300HR, 2.5 × 90 cm, 1.6 mL/min, calibrated with standard proteins; polypeptides of the preparations and fractions by SDS-PAGE; settings: both partners purified
T1 construct: αB-crystallin (19.8 kDa), identified by mass on SDS-PAGE; source: purified from lenses of 6-month-old steers as a part of α-crystallin and HMWA
T1 sequence (looked up): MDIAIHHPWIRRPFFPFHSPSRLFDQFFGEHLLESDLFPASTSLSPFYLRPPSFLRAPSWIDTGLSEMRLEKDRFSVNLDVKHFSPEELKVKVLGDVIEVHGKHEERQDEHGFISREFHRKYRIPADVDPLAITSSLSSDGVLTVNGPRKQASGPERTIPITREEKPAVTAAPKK

“refolded HMWA (from UniProt P02470 1-173; P02510 1-175) (complex)” showed an abscissa point of intersection (reciprocal of AC0) of the relative aggregation rate of UV-damaged βL-crystallin against the chaperone/target protein ratio; points with accelerated aggregation left out (mol/mol (chaperone/target protein)) [1] of 0.38.

In the case of “αH-crystallin, high molecular weight aggregate (native) (from UniProt P02470 1-173; P02510 1-175) (complex)”, the abscissa point of intersection (reciprocal of AC0) of the relative aggregation rate of UV-damaged βL-crystallin against the chaperone/target protein ratio (mol/mol (chaperone/target protein)) [1] is reported as 0.46 and the initial adsorption capacity AC0 from the aggregation kinetics of UV-damaged βL-crystallin (37 °C, 360 nm): target protein/chaperone mol/mol ratio, counted on monomers (mol/mol (target protein/chaperone)) [1] is reported as 2.

B1: α-crystallin (native, from the lens cortex) (complex, bovine (endogenous in steer lens))
chain 1: MDIAIQHPWFKRTLGPFYPSRLFDQFFGEGLFEYDLLPFLSSTISPYYRQSLFRTVLDSGISEVRSDRDKFVIFLDVKHFSPEDLTVKVQEDFVEIHGKHNERQDDHGYISREFHRRYRLPSNVDQSALSCSLSADGMLTFSGPKIPSGVDAGHSERAIPVSREEKPSSAPSS
chain 2: T1 sequence (looked up)
notes: αA-crystallin, from steer lens; identified by mass on SDS-PAGE (20 kDa); αB-crystallin, from steer lens; identified by mass on SDS-PAGE (19.8 kDa); Polydisperse oligomer; by SDS-PAGE αA-crystallin 30%, αB-crystallin 60%, truncated α-crystallin 10% (a mixture of αA and αB fragments); also called authentic α-crystallin; native α-crystallin; source: purified from lenses of 6-month-old steers (gel …)
B1: binds [2].

B2: renatured α-crystallin (complex, bovine (endogenous in steer lens))
chain 1: B1 chain 1
chain 2: T1 sequence (looked up)
notes: αA-crystallin, from steer lens; as in m1; αB-crystallin, from steer lens; Same polypeptides as m1, reassembled from monomers after urea
B2: binds [2].

B3: αA-crystallin (natural protein, bovine (endogenous in steer lens), UniProt P02470 1-173, looked up)
chain: B1 chain 1
notes: αA-crystallin (20 kDa), identified by mass on SDS-PAGE; source: purified from lenses of 6-month-old steers as a part of α-crystallin and HMWA
B3: binds (αB-crystallin).
